In US11787839B2, “Targeting α2δ-1-bound glutamate receptors for treating diseases and disorders” (Board of Regents, The University of Texas System, priority 2017, dated 2023):

Key:
[1] = molecular target: T1, α2δ-1-GluN1 protein complex (Mus musculus, UniProt O08532+P35438); assay: Co-IP of α2δ-1 and GluN1 in mouse brain slices; assay type: cell-based
T1 construct: from tissue; host or cells: mouse brain slices (hippocampal CA1, hypothalamic PVN, brain tissue membrane extracts)
Method: FIGS. 22A-22D: α2δ-1-bound NMDARs contribute to brain injury and neurological deficit caused by MCAO in the brain. (A) Upper: Original gel images of coimmunoprecipitation (co-IP) analysis show the interaction between α2δ-1 and GluN1 in two samples from mouse brain tissues; Lower: Effect of α2δ-1Tat peptide (1 μM for 60 min) on the α2δ-1-GluN1 protein complex in mouse brain tissues (n=6 mice per group). (B) Representative gel images and quantification of co-IP analysis show the effect of OGD on the α2δ-1-GluN1 or α2δ-1-Cav2.2 association in mouse brain tissues (n=6 mice per group). IgG and input were used as negative and positive controls, respectively. (C) Original gel images and quantification of co-IP analysis show the effect of α2δ-1Tat peptide (P) and control peptide (C; both 1 μM for 30 min) on the α2δ-1-GluN1 or α2δ-1-Cav2.2 association in mouse brain slices subjected to OGD (O, n=6 mice per group). (D) Neurological severity scores (left) and representative TTC staining and quantification (right) of brain infarct volume in MCAO mice treated with α2δ-1Tat peptide or control peptide (both 200 μg/kg, i.p.) at 15 min before MCAO and immediately before reperfusion (n=8 mice per group). Data are shown as means±SEM. *p<0.05, **p<0.01 compared with the control peptide- or vehicle-treated group (paired Student's t-test for panels B-D and F; Mann-Whitney test for panel E). […]

[2] = molecular target: T2, N-type Ca2+ channels (Cav2.2, Cavb1, α2δ-1) (UniProt P54290+Q00975); assay: VACC (N-type Ca2+ channel) currents in HEK293 cells; assay type: cell-based; settings: HEK293 cotransfected with Cav2.2, Cavb1 and α2δ-1, 60 min
T2 construct: expressed in transfected cells; host or cells: HEK293

[3] = molecular target: T3, NMDARs of spinal dorsal horn neurons (Rattus norvegicus, UniProt P35439+Q00959+Q00960); assay: Electrophysiological recordings in rat spinal cord slices (SNL, Cacna2d1 vector); assay type: cell-based; settings: SNL rats; peptides 1 mM for 60 min
T3 construct: from tissue; host or cells: rat lumbar spinal cord slices (lamina II neurons) and synaptosomes made from them
Method: Electrophysiological recordings in spinal cord slices: Anesthesia was induced in rats or mice with isoflurane and removed the lumbar spinal cords via laminectomy. […] The spinal cord slices were placed in a glass bottom chamber and continuously perfused with Krebs solution at 5.0 ml/min at 34° C. maintained by an inline solution heater and a temperature controller.
It becomes impossible to visualize neurons in other laminas in adult (>10-week-old) rodent spinal cords because of heavy laminar myelination. […] The tip of the puff pipette was placed 150 μm away from the recorded neuron.
In some experiments, the attached dorsal root was electrically stimulated with a stimulating electrode (0.5 ms, 0.6 mA and 0.1 Hz) to evoke monosynaptic excitatory postsynaptic currents (EPSCs). The α-amino-3-hydroxy-5-methyl-4-isoxazolepropionic acid receptor (AMPAR)-mediated EPSCs were recorded at a holding potential of −60 mV in the presence of 10 μM bicuculline and 1 μM strychnine, whereas NMDAR-mediated EPSCs were recorded at +40 mV in the presence of 10 μM 6-cyano-7-nitroquinoxaline-2,3-dione, 10 μM bicuculline, and 1 μM strychnine. […] All signals were recorded using an amplifier (MultiClamp700B; Axon Instruments Inc., Union City, Calif.), filtered at 1-2 kHz, digitized at 10 kHz, and stored for off-line analysis. Final spinal cord slice recordings were performed 3-4 weeks after the nerve injury or sham surgery. In all electrophysiological experiments, 3-5 animals were used for each recording protocol, and only 1 neuron was recorded in each spinal cord slice.

[4] = molecular target: presynaptic NMDARs of spinal lamina II neurons (Rattus norvegicus, UniProt P35439+Q00959+Q00960)
presynaptic NMDARs of spinal lamina II neurons, sequence (Q00959 20-1464 limits assumed, other chains not shown): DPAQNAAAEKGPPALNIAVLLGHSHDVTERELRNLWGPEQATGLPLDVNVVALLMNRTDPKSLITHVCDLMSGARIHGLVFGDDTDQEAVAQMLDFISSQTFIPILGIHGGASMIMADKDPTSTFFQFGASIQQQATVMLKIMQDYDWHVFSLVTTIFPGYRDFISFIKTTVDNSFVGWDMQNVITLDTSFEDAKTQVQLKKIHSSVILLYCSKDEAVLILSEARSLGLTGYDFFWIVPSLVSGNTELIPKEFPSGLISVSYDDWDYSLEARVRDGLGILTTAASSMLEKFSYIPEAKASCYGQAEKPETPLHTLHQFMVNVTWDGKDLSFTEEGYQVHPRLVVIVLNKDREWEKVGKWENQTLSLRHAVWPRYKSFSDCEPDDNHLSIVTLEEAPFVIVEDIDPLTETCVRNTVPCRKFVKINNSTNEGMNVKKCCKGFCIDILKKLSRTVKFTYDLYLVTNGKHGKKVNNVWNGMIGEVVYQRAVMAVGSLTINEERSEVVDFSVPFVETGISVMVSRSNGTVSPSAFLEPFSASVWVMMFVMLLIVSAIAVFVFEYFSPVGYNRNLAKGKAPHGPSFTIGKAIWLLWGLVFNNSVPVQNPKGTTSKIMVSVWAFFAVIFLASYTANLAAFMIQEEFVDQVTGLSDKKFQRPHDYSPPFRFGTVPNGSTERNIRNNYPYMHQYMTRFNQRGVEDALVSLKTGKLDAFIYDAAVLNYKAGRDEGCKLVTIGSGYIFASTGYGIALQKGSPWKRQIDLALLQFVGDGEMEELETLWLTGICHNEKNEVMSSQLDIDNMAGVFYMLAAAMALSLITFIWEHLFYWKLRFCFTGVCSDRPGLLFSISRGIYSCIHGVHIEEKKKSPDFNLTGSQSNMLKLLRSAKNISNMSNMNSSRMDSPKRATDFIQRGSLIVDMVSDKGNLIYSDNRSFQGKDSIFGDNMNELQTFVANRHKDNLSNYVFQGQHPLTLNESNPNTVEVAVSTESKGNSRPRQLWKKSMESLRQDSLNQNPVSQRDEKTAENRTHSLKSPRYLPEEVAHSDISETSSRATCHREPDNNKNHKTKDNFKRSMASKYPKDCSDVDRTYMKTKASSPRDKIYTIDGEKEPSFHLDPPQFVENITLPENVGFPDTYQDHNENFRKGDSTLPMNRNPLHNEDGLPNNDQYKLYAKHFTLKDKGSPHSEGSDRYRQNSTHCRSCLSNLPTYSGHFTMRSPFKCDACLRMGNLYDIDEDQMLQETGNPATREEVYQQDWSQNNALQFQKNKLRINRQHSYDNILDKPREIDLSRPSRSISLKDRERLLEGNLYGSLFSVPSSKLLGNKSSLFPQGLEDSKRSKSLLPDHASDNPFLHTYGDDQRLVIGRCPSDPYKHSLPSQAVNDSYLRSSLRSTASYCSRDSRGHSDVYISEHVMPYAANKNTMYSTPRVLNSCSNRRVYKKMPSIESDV
presynaptic NMDARs of spinal lamina II neurons, sequence (Q00960 27-1482, other chains not shown): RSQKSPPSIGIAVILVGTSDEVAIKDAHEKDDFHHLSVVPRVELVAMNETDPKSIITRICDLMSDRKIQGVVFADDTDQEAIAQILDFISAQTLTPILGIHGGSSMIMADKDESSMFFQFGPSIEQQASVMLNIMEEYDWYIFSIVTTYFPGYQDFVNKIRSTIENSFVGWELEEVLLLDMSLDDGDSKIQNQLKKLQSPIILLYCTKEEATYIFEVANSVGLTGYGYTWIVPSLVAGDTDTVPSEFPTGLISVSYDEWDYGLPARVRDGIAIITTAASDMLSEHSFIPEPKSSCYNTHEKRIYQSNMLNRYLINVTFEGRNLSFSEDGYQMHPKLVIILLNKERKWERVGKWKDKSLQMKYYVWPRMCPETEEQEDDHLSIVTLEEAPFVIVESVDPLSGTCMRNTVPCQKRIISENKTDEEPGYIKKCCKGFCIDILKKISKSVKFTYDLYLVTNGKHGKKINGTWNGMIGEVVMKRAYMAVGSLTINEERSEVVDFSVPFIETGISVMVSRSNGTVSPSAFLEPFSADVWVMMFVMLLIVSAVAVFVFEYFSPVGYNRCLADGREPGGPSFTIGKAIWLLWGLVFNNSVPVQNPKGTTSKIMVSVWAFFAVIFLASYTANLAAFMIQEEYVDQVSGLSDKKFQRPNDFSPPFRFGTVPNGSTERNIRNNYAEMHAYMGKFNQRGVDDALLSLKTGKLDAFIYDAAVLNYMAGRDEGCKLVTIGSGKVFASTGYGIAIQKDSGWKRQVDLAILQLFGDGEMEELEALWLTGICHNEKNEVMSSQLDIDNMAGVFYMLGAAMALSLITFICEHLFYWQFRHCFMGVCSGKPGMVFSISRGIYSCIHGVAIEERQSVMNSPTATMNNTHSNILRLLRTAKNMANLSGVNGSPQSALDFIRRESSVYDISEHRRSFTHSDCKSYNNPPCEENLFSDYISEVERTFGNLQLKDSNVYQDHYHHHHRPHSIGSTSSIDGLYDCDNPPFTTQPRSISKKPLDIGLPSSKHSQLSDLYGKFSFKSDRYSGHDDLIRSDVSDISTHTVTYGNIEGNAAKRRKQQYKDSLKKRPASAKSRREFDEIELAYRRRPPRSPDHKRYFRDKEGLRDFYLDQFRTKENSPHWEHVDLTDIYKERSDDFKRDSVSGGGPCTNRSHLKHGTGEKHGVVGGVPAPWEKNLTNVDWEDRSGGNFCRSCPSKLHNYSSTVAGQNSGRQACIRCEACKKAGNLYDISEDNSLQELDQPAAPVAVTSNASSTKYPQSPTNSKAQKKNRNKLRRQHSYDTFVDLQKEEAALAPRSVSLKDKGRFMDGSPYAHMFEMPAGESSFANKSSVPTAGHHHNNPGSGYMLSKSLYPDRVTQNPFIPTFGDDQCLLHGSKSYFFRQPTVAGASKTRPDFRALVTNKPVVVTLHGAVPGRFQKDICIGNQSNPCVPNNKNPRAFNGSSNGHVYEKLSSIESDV

[5] = paclitaxel-treated rats, AP5 50 μM, pregabalin 20 μM, peptides 1 μM
[6] = vehicle-treated rats, AP5 50 μM, pregabalin 20 μM, peptides 1 μM

T1 sequence (O08532 25-956 limits assumed, other chains not shown): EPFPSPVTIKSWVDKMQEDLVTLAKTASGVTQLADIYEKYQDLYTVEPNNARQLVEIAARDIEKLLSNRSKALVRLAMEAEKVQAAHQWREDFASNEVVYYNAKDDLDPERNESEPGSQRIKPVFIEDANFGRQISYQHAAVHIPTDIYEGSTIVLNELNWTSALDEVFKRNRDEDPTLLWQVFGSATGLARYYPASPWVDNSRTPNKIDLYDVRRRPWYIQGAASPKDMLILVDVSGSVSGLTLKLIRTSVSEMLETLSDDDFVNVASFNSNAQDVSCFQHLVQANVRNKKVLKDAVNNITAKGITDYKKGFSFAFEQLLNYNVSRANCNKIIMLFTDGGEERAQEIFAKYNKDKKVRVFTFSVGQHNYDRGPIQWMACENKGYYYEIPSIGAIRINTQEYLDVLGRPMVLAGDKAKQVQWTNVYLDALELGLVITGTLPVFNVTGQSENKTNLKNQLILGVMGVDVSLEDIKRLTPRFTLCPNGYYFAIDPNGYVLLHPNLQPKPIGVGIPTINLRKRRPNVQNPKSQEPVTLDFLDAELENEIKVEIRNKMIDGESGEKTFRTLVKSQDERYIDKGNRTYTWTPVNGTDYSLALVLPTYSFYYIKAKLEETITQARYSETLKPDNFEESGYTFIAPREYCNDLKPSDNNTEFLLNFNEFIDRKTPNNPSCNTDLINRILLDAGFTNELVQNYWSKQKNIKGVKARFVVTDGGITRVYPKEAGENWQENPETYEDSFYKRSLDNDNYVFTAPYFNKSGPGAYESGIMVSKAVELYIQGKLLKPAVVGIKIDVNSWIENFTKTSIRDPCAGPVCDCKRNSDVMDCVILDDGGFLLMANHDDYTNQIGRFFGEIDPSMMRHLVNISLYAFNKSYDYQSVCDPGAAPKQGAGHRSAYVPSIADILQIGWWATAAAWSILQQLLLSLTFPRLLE

In the case of “YGRKKRRQRRRVSGLNPSLWSIFGLQFILLWLVSGSRHYLW (a2d1 peptide) [α2δ-1Tat peptide]”, the “α2δ-1-GluN1 interaction in brain tissues subjected to OGD” value ([1]; OGD, 1 μM for 30 min) is reported as “substantially reduced”, the “α2δ-1-GluN1 protein complex in brain tissues” value ([1]; brain slices, 1 μM for 60 min) is reported as “large reduction” and the “VACC (N-type Ca2+ channel) currents” value [2] is reported as “no effect”. For the same sequence, the “VACC (N-type Ca2+ channel) currents” value ([2]; listed as α2δ-1 Tat peptide) was “had no significant effect”, the “increased pre- and postsynaptic NMDAR activity of spinal dorsal horn neurons” value [3] was “normalized” and the “reduced PPR of evoked EPSCs” value ([4]; paclitaxel-treated rats) was “fully reversed”. The “increased amplitude of evoked monosynaptic EPSCs” value [4, 5] was “completely reversed”, the “increased frequency of mEPSCs of lamina II neurons” value [4, 5] was “completely normalized” and the “PPR of evoked EPSCs” value ([4]; vehicle-treated rats) was “had no effect”. For the same sequence, the “amplitude of evoked monosynaptic EPSCs” value [4, 6] was “did not affect” and the “frequency of mEPSCs of lamina II neurons” value [4, 6] was “neither incubation with α2δ-1Tat peptide nor bath application of AP5 had any effect”.
